Reference: US20200330603A1, “PEPTIDES FOR RENAL THERAPY” (FRED HUTCHINSON CANCER RESEARCH CENTER, priority 2015, published 2020)
Values joined by “and” are separate entries in the source; they are usually repeats but may differ in a detail not shown here. Identical values can stand only once.

Assays:
[1] = Plasma creatinine, Jaffe reaction method (Example 14); type: in vivo, mice; settings: 100 nmol iv
Procedure: (§1) This example illustrates assessment of renal injury by peptides of this disclosure. Mice were injected intravenously at a dose of 100 nmol, which is approximately 16 mg/kg. PBS was administered as a negative control. At 24 hours post-peptide administration, mice were euthanized and plasma blood urea nitrogen (BUN) and plasma creatinine were measured. The blood urea nitrogen (BUN) assay was performed to assess renal toxicity with a commercially available kit. Plasma creatinine concentrations were determined using the colorimetrically corrected Jaffe reaction method. Additionally, the kidneys from these mice were removed, sectioned, and stained using periodic acid Schiff (PAS). […] Histological analysis corroborated the mRNA/protein data.

[2] = Blood urea nitrogen (BUN) assay in plasma, renal biocompatibility (Example 4); type: in vivo, mice; settings: 100 nmol per mouse intravenously, after 24 hours, one value per mouse
Procedure: This example describes renal biocompatibility of peptides of this disclosure. The peptides of SEQ ID NO: 18, SEQ ID NO: 20, SEQ ID NO: 21, SEQ ID NO: 26, SEQ ID NO: 36, SEQ ID NO: 39, SEQ ID NO: 45 and SEQ ID NO: 53 were intravenously dosed into mice at 100 nmol per mouse. After 24 hours, mice were anesthesized with Ketamine-Xylazine and euthanized. Plasma and kidneys were removed as quickly as possible after euthanization. A blood urea nitrogen (BUN) assay was performed to assess renal toxicity with a commercially available kit.
The average BUN concentration in plasma for naïve mice was 25 mg/dL, with a standard error of 2 mg/dL. The average BUN concentration in plasma for peptide-dosed mice was 21, with a standard error of 1 mg/dL.

trypsin = assay: Peptide stability in the presence of trypsin, RP-HPLC; type: in vitro ADME; settings: 5 μg trypsin, pH 7.0, 30 minutes at 37.5° C.
Procedure: (§2) This example describes peptide stability in the presence of pepsin, trypsin, a reducing agent, or elevated temperature. Peptides were first suspended in 500 µl of ddH2O to a stock concentration of 2 mg/ml. […] These reactions were then quenched with 5 μg of soybean trypsin inhibitor (I) and, in some cases, 10 mM dithiothreitol (DTT). […] Temperature stability was tested by incubating peptides in non-reducing conditions at 70° C. for 1 hour. Stability was evaluated by RP-HPLC.

[3] = Plasma BUN, assessment of renal injury (Example 14); type: in vivo, mice
Procedure: as §1

[4] = Peptide stability to a reducing agent (DTT), RP-HPLC; type: physicochemical; settings: 10 mM DTT in PBS, room temperature, 30 minutes
Procedure: as §2

[5] = Kidney histology, periodic acid Schiff (PAS) stain; type: in vivo, mice; settings: 24 hours after intravenous administration of 100 nmol
Procedure: as §1

MCP-1 mRNA = assay: Stress-induced mRNA by RT-PCR, MCP-1; type: in vivo, mice; settings: four hours post-peptide administration
Procedure: (§3) At four hours post-peptide administration, potential renal injury was assessed by measuring three stress-induced mRNAs (MCP-1, NGAL, and TNFa).

TNFa mRNA = assay: Stress-induced mRNA by RT-PCR, TNFa; type: in vivo, mice; settings: four hours post-peptide administration
Procedure: as §3

[6] = Whole body autoradiography of 14C labeled peptides, renal cortex and blood; type: in vivo, mice
Description: This example describes radiolabeling of peptides of this disclosure. Several knotted peptides were radiolabeled by reductive methylation with ^14C formaldehyde and sodium cyanoborohydride with standard techniques. The sequences were engineered to have the amino acids, “G” and “S” at the N terminus. See Methods in Enzymology V91:1983 p. 570 and JBC 254(11):1979 p. 4359. An excess of formaldehyde was used to ensure complete methylation (dimethylation of every free amine). The labeled peptides were isolated via solid-phase extraction on Strata-X columns (Phenomenex 8B-S100-AAK), rinsed with water with 5% methanol, and recovered in methanol with 2% formic acid. Solvent was subsequently removed in a blowdown evaporator with gentle heat and a stream of nitrogen gas. The final product was verified and characterized by high performance liquid chromatography (HPLC).
This example illustrates accumulation of peptides of the present disclosure in kidneys measured by whole body autoradiography. Peptides of the present disclosure were radiolabeled as described in EXAMPLE 2. 100 nmol of ^14C labeled peptides were administered intravenously in mice. Radiolabeled peptide signal was quantified in the renal cortex and blood from the ventricle in 2-3 sections per mouse in 2 mice total. Whole body autoradiography analysis was performed with AIDA.
SEQ ID NO: 55 and SEQ ID NO: 119 ([…]), a linearized version of SEQ ID NO: 55, were radiolabeled with ^14C as described in EXAMPLE 2 and administered intravenously in mice at a dose of 100 nmol. Radiolabeled peptide signal was quantified in the renal cortex and blood from the ventricle in 2-3 sections per mouse in 2 mice total. Whole body autoradiography analysis was performed with AIDA.

HO-1 mRNA = assay: mRNA by RT-PCR, HO-1; type: in vivo, mice; settings: four hours post-peptide administration
NGAL mRNA = assay: Stress-induced mRNA by RT-PCR, NGAL; type: in vivo, mice; settings: four hours post-peptide administration
Procedure: as §3

[7] = Table 3, 24 hours post-peptide administration
[8] = Table 3, 100 nmol iv (approximately 16 mg/kg), 24 hours post-peptide administration

In the case of “GSQDKCKKVYENYPVSKCQLANQCNYDCKLDKHARSGECFYDEKRNLQCICDYCEY [SEQ ID NO: 39]”, the “Plasma Creatinine” value [1, 7] is reported as 0.32 mg/dL, the “Peptide BUN” value [2] is reported as 23 mg/dL and 18 mg/dL and the Trypsin (trypsin) is reported as “Partially Resistant”. For the same sequence, the “Plasma BUN” value [3, 8] was 20.5 mg/dL, the Reduction [4] was “Not Resistant” and the “renal physiology (PAS histology, FIG. 24)” value (from here on “renal physiology”) [5] was “normal renal physiology”.

With “GSSFGLCRLRRGFCARGRCRFPSIPIGRCSRFVQCCRRVW [SEQ ID NO: 45]” the “Plasma Creatinine” value [1, 7] was 0.39 mg/dL, the “Peptide BUN” value [2] was 21 mg/dL and 22 mg/dL and the “Plasma BUN” value [3, 8] was 21.5 mg/dL. The “renal physiology” value [5] was “normal renal physiology”.

In the case of “GSQFTDVKCTGSKQCWPVCKQMFGKPNGKCMNGKCRCYS [SEQ ID NO: 26]”, the “Plasma Creatinine” value [1, 7] is reported as 0.33 mg/dL, the “Peptide BUN” value [2] is reported as 19 mg/dL and the Trypsin (trypsin) is reported as “Partially Resistant”. For the same sequence, the “Plasma BUN” value [3, 8] was 19 mg/dL, the Reduction [4] was “Not Resistant” and the “renal physiology” value [5] was “normal renal physiology”.

In the case of “GSDRDSCIDKSRCSKYGYYQECQDCCKKAGHNGGTCMFFKCKCA [SEQ ID NO: 21]”, the “Plasma Creatinine” value [1, 7] is reported as 0.33 mg/dL, the “Peptide BUN” value [2] is reported as 23 mg/dL and 17 mg/dL and the Trypsin (trypsin) is reported as “Partially Resistant”. The “Plasma BUN” value [3, 8] was 20 mg/dL, the Reduction [4] was “Not Resistant” and the “renal physiology” value [5] was “normal renal physiology”.

With “GSSCEPGTTFRDRCNTCRCGSDGRSAACTLRACPQ [SEQ ID NO: 46]” the mMCP-1/GAPDH (MCP-1 mRNA) was 0.64, the “Plasma Creatinine” value ([1]; Table 4, time not stated for this column (mRNAs at four hours)) was 0.29 mg/dL and the “Plasma BUN” value ([3]; Table 4, 100 nmol iv, time not stated for this column (mRNAs at four hours)) was 22 mg/dL. For the same sequence, the mTNFa/GAPDH (TNFa mRNA) was 2.87, the “Signal ratio Kidney:Blood (3 hours)” value ([6]; renal cortex vs blood from the ventricle, 100 nmol iv, 3 hours) was 4.7 and the “Signal ratio Kidney:Blood (24 hours)” value ([6]; renal cortex vs blood from the ventricle, 100 nmol iv, 24 hours) was 6. The “Pixel density-Bkg/area (3 hours)” value ([6]; renal cortex, 100 nmol 14C labeled peptide iv, 3 hours) was 8.83E+05, the “Pixel density-Bkg/area (24 hours)” value ([6]; renal cortex, 100 nmol 14C labeled peptide iv, 24 hours) was 1.49E+06 and the mHO-1/GAPDH (HO-1 mRNA) was 0.58. The mNGAL/GAPDH (NGAL mRNA) was 1.39.

With “GSGDCLPHLKRCKENNDCCSKKCKRRGANPEKRCR [SEQ ID NO: 18]” the “Plasma Creatinine” value [1, 7] was 0.43 mg/dL, the “Peptide BUN” value [2] was 21 mg/dL and 18 mg/dL and the Trypsin (trypsin) was “Partially Resistant”. For the same sequence, the “Plasma BUN” value [3, 8] was 19.5 mg/dL, the Reduction [4] was “Partially Resistant” and the “renal physiology” value [5] was “normal renal physiology”.
